Assay [1] deals with T1, human Kv1.3 (Homo sapiens, UniProt P22001).
T1 construct: cell lines stably expressing the full length human Kv1.3 channel
Kind of assay: FACS competition with FAM-labeled ShK on HEK293H human Kv1.3 cells. The class given is binding. Here is the method:
To evaluate the competition between the toxin ShK and the Nanobodies for binding to Kv1.3, a FACS competition experiment was performed using HEK293H cells overexpressing human Kv1.3 and the parental HEK293H cells as background cell line. As detection reagent, FAM-labeled ShK was used (6-FAM-AEEAc-Stichodactyla helianthus Neurotoxin (ShK) (Bachem, H-6088, 1046522, PRT00000366/01/01)). To setup the assay, first a titration series of the labeled Shk-FAM was performed on the HEK293H Kv1.3 cells in order to determine the EC50 value for binding.
In brief, a dilution series of ShK or Nanobody were added together with the labeled toxin to 200 000 cells in a 96-well plate. After 90 minutes incubation at 4° C., cells were washed three times before read out was performed on a FACS Canto (Becton Dickinson). First a gate was set on the intact cells as determined from the scatter profile. Next, dead cells were gated out by their fluorescence profile from the TOPRO stain (5 nM, Molecular probes, T3605). […] The percentage of inhibition for Nanobodies blocking the interaction of ShK to human Kv1.3 is depicted in Table B-11.

Assay [2] has as its target T1, human Kv1.3. Kind of assay: IonWorks Quattro automated perforated patch clamp, Kv1.3-expressing CHL cells. The class given is cell-based. Conditions: 6 to 7 min incubation. The source says:
Selected Nanobodies were electrophysiologically characterized on human Kv1.3 on the IonWorks automated perforated-Patch Clamp using Kv1.3-expressing Chinese Hamster Lung (CHL) cells. The procedure for evaluating the modulatory effect of the purified Nanobodies on human Kv1.3 via electrophysiological recordings is given below.
IonWorks Quattro (Molecular Devices) is a second-generation screening instrument that provides membrane voltage control and provides a direct electrophysiological assay for screening and characterization of compounds. It is an automated, high-throughput planar perforated patch clamp that uses a 384-well PatchPlate™ substrate.
Extracellular solution contained (in mM): 138 NaCl, 2.7 KCl, 0.9 CaCl2, 0.5 MgCl2, 8 Na2HPO4, and 1.5 KH2PO4 (pH 7.3 with NaOH, and 285-290 mOsmolar). The intracellular solution contained (in mM): 100 K-gluconate, 40 KCl, 3.2 EGTA, 5 HEPES and 3.2 MgCl2 (pH 7.3 with KOH, and 300-315 mOsmolar). These solutions were freshly made, stocked for no longer than a month at 4° C. and filtered prior to use. The selected Nanobodies were directly diluted in extracellular solution to obtain a 3 μM sample solution. […]
The basic principles of IonWorks automated patch clamp electrophysiology are described by Schroeder et al. (J Biomol Screen 8(1):50-64, 2003). […] In PPC mode, an ensemble average of the current from up to 64 cells per well was recorded. […]
Background: Patch clamp records ionic current or voltage across a cell membrane.

T1 sequence (P22001 whole entry): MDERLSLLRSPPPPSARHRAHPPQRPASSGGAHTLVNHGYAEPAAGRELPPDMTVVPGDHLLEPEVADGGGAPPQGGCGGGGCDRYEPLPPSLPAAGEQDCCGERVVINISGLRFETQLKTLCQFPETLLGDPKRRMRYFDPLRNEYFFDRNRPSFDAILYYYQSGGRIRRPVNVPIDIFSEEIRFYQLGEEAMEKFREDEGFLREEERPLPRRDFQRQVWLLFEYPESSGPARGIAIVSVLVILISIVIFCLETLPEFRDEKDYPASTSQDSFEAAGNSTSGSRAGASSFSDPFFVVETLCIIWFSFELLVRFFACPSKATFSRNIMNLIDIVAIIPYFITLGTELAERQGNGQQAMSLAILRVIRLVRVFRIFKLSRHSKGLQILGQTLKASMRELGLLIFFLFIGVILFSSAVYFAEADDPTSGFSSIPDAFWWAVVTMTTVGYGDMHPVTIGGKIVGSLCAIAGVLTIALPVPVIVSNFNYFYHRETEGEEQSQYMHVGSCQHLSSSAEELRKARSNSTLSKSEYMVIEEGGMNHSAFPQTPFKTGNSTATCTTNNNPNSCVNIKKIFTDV

B1: A019400003: monovalent anti-Kv1.3 Nanobody, family 1 (protein)
VHH: EVQLVESGGGLVQAGGSLSLSCTASGGTFRNFGMGWFRQAQGKEREFVAAISRTGGHTYYQDSVKGRFTISKDNAKNILSLQMNSLKPEDTAVYYCAARFRFGDGTYYYQRAFYDFWGQGTQVTVSS
modifications: Nanobody sequence
On to B1, for which, in the assay with human Kv1.3 [1] (70 nM ShK-FAM), the “blocking of FAM labeled ShK binding to Kv1.3, in words” value is recorded as “only partially blocked”. The “% inhibition of ShK-Fam binding” value with human Kv1.3 [1] (70 nM ShK-Fam (100x EC50), HEK 293H hu Kv1.3 cells) stood at 87.13%. In addition, the “effect on Kv1.3 current traces on IonWorks, in words” value with human Kv1.3 [2] is listed as “biphasic modulatory effect”.

The values above are taken from patent US11149086B2, “KV1.3 binding immunoglobulins” (Ablynx N.V., priority 2014, dated 2021).
